The target of this assay is HLA-A*03:01 (Homo sapiens, UniProt P04439). The assay is described as follows: MHC binding assay (UV-ligand exchange, β2m ELISA). Conditions: binding to HLA-A*03:01, UV-ligand exchange, β2m ELISA. The source says:
Candidate peptides for T cell based therapies according to the present invention were further tested for their MHC binding capacity (affinity). The individual peptide-MHC complexes were produced by UV-ligand exchange, where a UV-sensitive peptide is cleaved upon UV-irradiation and exchanged with the peptide of interest as analyzed. Only peptide candidates that can effectively bind and stabilize the peptide-receptive MHC molecules prevent dissociation of the MHC complexes. To determine the yield of the exchange reaction, an ELISA was performed based on the detection of the light chain (β2m) of stabilized MHC complexes. The assay was performed as generally described in Rodenko et al. (Rodenko et al., 2006) 96 well MAXISorp plates (NUNC) were coated over night with 2 ug/ml streptavidin in PBS at room temperature, washed 4× and blocked for 1 h at 37° C. in 2% BSA containing blocking buffer. Refolded HLA-A*02:01/MLA-001 monomers served as standards, covering the range of 15-500 ng/ml. Peptide-MHC monomers of the UV-exchange reaction were diluted 100-fold in blocking buffer. Samples were incubated for 1 h at 37° C., washed four times, incubated with 2 ug/ml HRP conjugated anti-β2m for 1 h at 37° C., washed again and detected with TMB solution that is stopped with […]. Absorption was measured at 450 nm. Candidate peptides that show a high exchange yield (preferably higher than 50%, most preferred higher than 75%) are generally preferred for a generation and production of antibodies or fragments thereof, and/or T cell receptors or fragments thereof, as they show sufficient avidity to the MHC molecules and prevent dissociation of the MHC complexes.
On the technique in general: An ELISA detects its analyte on a solid surface through an enzyme-linked reagent.
For “213 (KLYPTHACR; listed as Homo sapiens) [compound 213]”, the “Peptide exchange (MHC class I binding score, peptide exchange yield)” value (from here on “Peptide exchange”) was “++++ (>75% = ++++)”. On to “42 (RVCMTVDSLVNK; listed as Homo sapiens) [compound 42]”, for which the “Peptide exchange” value is “++++ (>75% = ++++)”.

In the case of “256 (AVIGALLAVGATK; listed as Homo sapiens) [compound 256]”, the “Peptide exchange” value is “+++ (>50 = +++)”. As for “177 (ALLGVIIAKK; listed as Homo sapiens) [compound 177]”, the “Peptide exchange” value is reported as “++++ (>75% = ++++)”. For “31 (HAFFPKTHR; listed as Homo sapiens) [compound 31]”, the “Peptide exchange” value is “++++ (>75% = ++++)”. Turning to “183 (KVYIPPIINK; listed as Homo sapiens) [compound 183]”, the “Peptide exchange” value is recorded as “++++ (>75% = ++++)”. As for “105 (QVLDLQSVK; listed as Homo sapiens) [compound 105]”, the “Peptide exchange” value is recorded as “++ (>20% = ++)”. As for “217 (RVYEGDGRNSLK; listed as Homo sapiens) [compound 217]”, the entry is “+++ (>50 = +++)”; as for “152 (KIICGVHYLY; listed as Homo sapiens) [compound 152]”, “+ (>10% = +)”. Take “175 (VIGTTSSPK; listed as Homo sapiens) [compound 175]”: the “Peptide exchange” value is “+++ (>50 = +++)”.

On to “26 (QLGYQAAVLK; listed as Homo sapiens) [compound 26]”, for which the “Peptide exchange” value is given as “+++ (>50 = +++)”.

Turning to “206 (RLYEMILQR; listed as Homo sapiens) [compound 206]”, the “Peptide exchange” value is “++++ (>75% = ++++)”.

For the substance “89 (VIYVICRHK; listed as Homo sapiens) [compound 89]”, the “Peptide exchange” value is on record as “+++ (>50 = +++)”. Regarding “1 (RVYPHKTLY; listed as Homo sapiens) [compound 1]”, the “Peptide exchange” value was “+++ (>50 = +++)”. As for “164 (RLAQYTIER; listed as Homo sapiens) [compound 164]”, the “Peptide exchange” value is “++++ (>75% = ++++)”. As to “218 (KAFNQSSIFTK; listed as Homo sapiens) [compound 218]”, the “Peptide exchange” value is “+++ (>50 = +++)”. In the case of “187 (KTCQVSGLLY; listed as Homo sapiens) [compound 187]” it was “++++ (>75% = ++++)”. As for “176 (RLYDAYVNR; listed as Homo sapiens) [compound 176]”, the “Peptide exchange” value was “++++ (>75% = ++++)”. Take “111 (ATSPPASVR; listed as Homo sapiens) [compound 111]”: the “Peptide exchange” value was “++++ (>75% = ++++)”. As to “114 (SLLTVSGAWAK; listed as Homo sapiens) [compound 114]”, the “Peptide exchange” value is given as “++++ (>75% = ++++)”. For “136 (ALSRMSQQY; listed as Homo sapiens) [compound 136]”, the “Peptide exchange” value is listed as “++++ (>75% = ++++)”. On to “39 (KTQFPQLK; listed as Homo sapiens) [compound 39]”, for which the “Peptide exchange” value is on record as “++ (>20% = ++)”. Turning to “151 (KVASFTVIGY; listed as Homo sapiens) [compound 151]”, the “Peptide exchange” value was “+++ (>50 = +++)”.

Take “169 (ATNGKVLKKR; listed as Homo sapiens) [compound 169]”: the “Peptide exchange” value is “++++ (>75% = ++++)”. As to “96 (RAVSVNPGK; listed as Homo sapiens) [compound 96]”, the “Peptide exchange” value was “+ (>10% = +)”. As for “44 (HAFPPGPNY; listed as Homo sapiens) [compound 44]”, the entry is “+ (>10% = +)”; as for “272 (AVCGGVLVH; listed as Homo sapiens) [compound 272]”, “++++ (>75% = ++++)”; as for “173 (VSYNRLIK; listed as Homo sapiens) [compound 173]”, “+++ (>50 = +++)”.

For “82 (CLANYTVNK; listed as Homo sapiens) [compound 82]”, the “Peptide exchange” value is “++++ (>75% = ++++)”.

Turning to “148 (RIGNKGIYK; listed as Homo sapiens) [compound 148]”, the “Peptide exchange” value was “+++ (>50 = +++)”. In the case of “34 (AIGTPLIGK; listed as Homo sapiens) [compound 34]” it was “+++ (>50 = +++)”.

As for “262 (TMWQIPQEFVK; listed as Homo sapiens) [compound 262]”, the “Peptide exchange” value is “++++ (>75% = ++++)”. “168 (ATNGKVLKK; listed as Homo sapiens) [compound 168]”: the “Peptide exchange” value is “++++ (>75% = ++++)”. “208 (KTGWFTLLY; listed as Homo sapiens) [compound 208]”: the “Peptide exchange” value is on record as “++++ (>75% = ++++)”. As to “258 (QVRDTLKIVFK; listed as Homo sapiens) [compound 258]”, the “Peptide exchange” value is recorded as “+++ (>50 = +++)”. For “171 (ATIGLSVSK; listed as Homo sapiens) [compound 171]”, the “Peptide exchange” value is on record as “++++ (>75% = ++++)”. For the substance “150 (LLLAAVTVK; listed as Homo sapiens) [compound 150]”, the “Peptide exchange” value is reported as “++ (>20% = ++)”. Regarding “67 (VVREILHAQTLK; listed as Homo sapiens) [compound 67]”, the “Peptide exchange” value is recorded as “+++ (>50 = +++)”. Turning to “149 (TVFLSKYLKK; listed as Homo sapiens) [compound 149]”, the “Peptide exchange” value is “+++ (>50 = +++)”. Turning to “98 (VSVAGSILAK; listed as Homo sapiens) [compound 98]”, the “Peptide exchange” value is listed as “++ (>20% = ++)”. As to “172 (SLLEADPFLK; listed as Homo sapiens) [compound 172]”, the “Peptide exchange” value is listed as “+++ (>50 = +++)”. As for “222 (RSNPYFQNK; listed as Homo sapiens) [compound 222]”, the entry is “++++ (>75% = ++++)”; as for “131 (RVDSKQRYY; listed as Homo sapiens) [compound 131]”, “++++ (>75% = ++++)”. As to “165 (AATIISSAK; listed as Homo sapiens) [compound 165]”, the “Peptide exchange” value is “+ (>10% = +)”. As to “70 (VTAVASLLK; listed as Homo sapiens) [compound 70]”, the “Peptide exchange” value is “++++ (>75% = ++++)”. For the substance “110 (IIFIPATILLK; listed as Homo sapiens) [compound 110]”, the “Peptide exchange” value is reported as “++++ (>75% = ++++)”. Turning to “75 (IIFVPEMNK; listed as Homo sapiens) [compound 75]”, the “Peptide exchange” value was “++++ (>75% = ++++)”. Turning to “174 (KMMKRLMTVEK; listed as Homo sapiens) [compound 174]”, the “Peptide exchange” value is “++++ (>75% = ++++)”. Consider “56 (TTYYPSPLNK; listed as Homo sapiens) [compound 56]”, for which the “Peptide exchange” value was “+++ (>50 = +++)”. Consider “205 (RVYPRPPSK; listed as Homo sapiens) [compound 205]”, for which the “Peptide exchange” value is reported as “++++ (>75% = ++++)”.

On to “224 (SLYDGFLSY; listed as Homo sapiens) [compound 224]”, for which the “Peptide exchange” value is given as “++++ (>75% = ++++)”.

On to “9 (HVLYPVPLESY; listed as Homo sapiens) [compound 9]”, for which the “Peptide exchange” value is “+++ (>50 = +++)”.

Regarding “216 (RVSSVKLISK; listed as Homo sapiens) [compound 216]”, the “Peptide exchange” value is reported as “+++ (>50 = +++)”. For the substance “182 (QICLPAIYK; listed as Homo sapiens) [compound 182]”, the “Peptide exchange” value was “++++ (>75% = ++++)”. For the substance “118 (SLRGSFPILY; listed as Homo sapiens) [compound 118]”, the “Peptide exchange” value is given as “+ (>10% = +)”.

With “202 (RLFPGLYLGY; listed as Homo sapiens) [compound 202]”, the “Peptide exchange” value is “+++ (>50 = +++)”. For the substance “17 (GGLSSQGVYY; listed as Homo sapiens) [compound 17]”, the “Peptide exchange” value was “++ (>20% = ++)”.

Source of the values: US11872270B2, “A*03 restricted peptides for use in immunotherapy against cancers and related methods” (Immatics Biotechnologies GmbH, priority 2018, dated 2024).
